B1: Dynamin-1 (Homo sapiens), Q05193-5 (parent)
chain: MGNRGMEDLIPLVNRLQDAFSAIGQNADLDLPQIAVVGGQSAGKSSVLENFVGRDFLPRGSGIVTRRPLVLQLVNATTEYAEFLHCKGKKFTDFEEVRLEIEAETDRVTGTNKGISPVPINLRVYSPHVLNLTLVDLPGMTKVPVGDQPPDIEFQIRDMLMQFVTKENCLILAVSPANSDLANSDALKVAKEVDPQGQRTIGVITKLDLMDEGTDARDVLENKLLPLRRGYIGVVNRSQKDIDGKKDITAALAAERKFFLSHPSYRHLADRMGTPYLQKVLNQQLTNHIRDTLPGLRNKLQSQLLSIEKEVEEYKNFRPDDPARKTKALLQMVQQFAVDFEKRIEGSGDQIDTYELSGGARINRIFHERFPFELVKMEFDEKELRREISYAIKNIHGIRTGLFTPDLAFEATVKKQVQKLKEPSIKCVDMVVSELTATIRKCSEKLQQYPRLREEMERIVTTHIREREGRTKEQVMLLIDIELAYMNTNHEDFIGFANAQQRSNQMNKKKTSGNQDEILVIRKGWLTINNIGIMKGGSKEYWFVLTAENLSWYKDDEEKEKKYMLSVDNLKLRDVEKGFMSSKHIFALFNTEQRNVYKDYRQLELACETQEEVDSWKASFLRAGVYPERVGDKEKASETEENGSDSFMHSMDPQLERQVETIRNLVDSYMAIVNKTVRDLMPKTIMHLMINNTKEFIFSELLANLYSCGDQNTLMEESAEQAQRRDEMLRMYHALKEALSIIGDINTTTVSTPMPPPVDDSWLQVQSVPAGRRSPTSSPTPQRRAPAVPPARPGSRGPAPGPPPAGSALGGAPPVPSRPGASPDPFGPPPQVPSRPNRAPPGVPRITISDP

Variants of: B1
Conditions: with acts_rabit ACTA1, P68135

Variant | effect of a mutation on the interaction
E434K | increasing interaction

Variants of: B1
Conditions: with acts_rabit ACTA1, P68135
Remark: another data set of the same source

Variant | effect of a mutation on the interaction
K426E | decreasing interaction
K421E | decreasing interaction
K414E | decreasing interaction

Second part, the variant after the results:

effect of a mutation on the interaction | Variant
decreasing interaction | K419E
decreasing interaction | K415E

Variants of: B1
Conditions: with acts_rabit ACTA1, P68135
Remark: another data set of the same source

Variant | effect of a mutation on the interaction
K426A | decreasing interaction
K419A | decreasing interaction
K415A | decreasing interaction
K421A | decreasing interaction
K414A | decreasing interaction
